Test results from US20250145926A1, “DEVICES, METHODS, AND SYSTEMS FOR ASSESSING CELL MIGRATION AND RELATED PROCESSES” (University of Washington, priority 2023, published 2025).

System: differentiated HL-60 neutrophils
Assay: vE/D ratio and ectodomain charge estimation, under-agarose cells immobilized with Latrunculin A in an electric field
Type: cell-based, human
Conditions: averaged across all electric field conditions; ± SEM
Method: Experimental Setup. Cells were resuspended to a concentration of 2×10^6 cells/ml in L-15 Medium with 10% hiFBS. With an ibiTreat μ-Slide-I (Ibidi, #80106) placed on a 37° C. heat block, 100 μL of cells were added to the channel and incubated for 5 minutes to allow them to sediment and loosely adhere to the bottom coverslip. Warm, liquid 2.5% UltraPure low melting point agarose (Invitrogen of Waltham, MA, #16520-050) in L-15 with 10% hiFBS was added to one channel reservoir and then centrifuged at 28-37° C. for 5 min at 700 g. This was performed in a custom 3D-printed swinging bucket rotor plate adaptor (design available upon request). Immediately after centrifugation, the slide was incubated on a 20° C. cooling plate (STIR-KOOL, Ladd Research of Essex Junction, VT; #SK-12D-AW) for 5 minutes to gel. […] L-15 media with 10% hiFBS was added to both reservoirs. […]
Quantification of vE/D Ratio and Estimation of Charge. […] Under the imaging conditions (800 nm axial resolution), the measured fluorescence intensities will reflect fluorescence predominantly at this surface, and the biological system is treated as a flat two-dimensional surface. […]

B1: Galvanin: single-pass transmembrane protein (161 amino acids, UniProt ID: Q6P9G4), electric field sensor (protein)
chain: NYEELENSGDTTVESERPNKVTIPSTFAAVTIKETLNANINSTNFAPDENQLEFILMVLIPLILLVLLLLSVVFLATYYKRKRTKQEPSSQGSQSALQTYELGSENVKVPIFEEDTPSVMEIEMEELDKWMNSMNRNADFECLPTLKEEKESNHNPSDSES
net charge estimated from vE/D: −18 e
